Laboratory results published in the nanobody polyreactivity screen of Harvey et al. (2022).

Experiment: yeast display, Sf9 membrane polyspecificity reagent, FACS + sequencing; frameworks hold sequencing errors
Method in brief: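 A nanobody's polyreactivity label depends on the gate it was sorted from. Yeast display cells were stained with 10% biotinylated, detergent-solubilized Sf9 membrane reagent for 1 hour at 4 °C, enriched on streptavidin microbeads and sorted by FACS. The low and high (top ~1%) gates were set on anti-HA fluorescence for expression and streptavidin fluorescence for reagent binding.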

QVQLVESGGGLVQAGGSLRLSCAASGFTFDINTMGWYRQAPGKERELVAAITYSGGSTYYADSVKGRFTISRDKAKNTVYLQMNSLKPEDTAVYYCATTWYFVASWYVAIYDYWGQGTQVTVSS
polyreactivity (PSR sort gate): low polyreactivity

QVQLEESGGGLVLAGGSLRLSCAAAGSTFVTNDMGWYRQAPGKERELGAAISVGGRTSYADSVKGRFTISRDNAKNTVYLQMNSLKPEESAVDYCAAQYSYTYWGQGTQVTVSS
polyreactivity (PSR sort gate): low polyreactivity

QVQLVESGGGLVQAGGSLRLSCAASGRIFYNYVMGWYRQAPGKERELVAAISDSGGSTYYADSVKGRFTISRDNAKNTVYLQMNSLKPEDTAVYYCNKVRPRKFWDYYYWGQGTQVTVSS
polyreactivity (PSR sort gate): high polyreactivity

QFQLVESGGGLVQAGGSLRLSCASSGIIFKRYAMGWYRQAPGNERELVAAISTSGSTYYADSVKGRFTISRDNAKNTVYLQMNSLKPEDTAVYYCAAGRWWRYFTWHGYWGQGTQVTVSS
polyreactivity (PSR sort gate): high polyreactivity

QVQLVESGGGLVQAGGSLRISCAASGRIFYENTMGWYRQAPGKETELVAVITSTGNTNYADSVKGRFTISRDNAKNTVYLQMNSLKPEVTAVYYCAADSPPGGYVFPERPYDYWGQGTQVTVSS
polyreactivity (PSR sort gate): low polyreactivity

QVQLVESGGGLVQAGGSLRLSCAASGSIFYGNAMGWYRQAPGNERESVAGITGSGSRTYYADSVKGRFTISRDNAKITVYLQMNSLKAEDTAVYYCARLTRTSRGLYDYWGQGTQVTVSS
polyreactivity (PSR sort gate): high polyreactivity

QVQLVESGGGLVQAGGSLRISCAASGFIFRRYAMGWYRQAPGKERELVAAIRTNSGSTYYADSVKGRFTISRDNAKNTVYLQMNSLKPEDTAVYYCATGQVYRTVSWLYNYWGQGTQVTVSS
polyreactivity (PSR sort gate): high polyreactivity

QVQHVESGGGLVQAGGSLRLSCAASGRTFKYYAMGWDRQAPGKERELVAAITRRGTSTYYADSVKGRFTISRDNAKNTVYLQMNSLKPEDTAVYYCNKDSPVTYSSRYGYWGQGTQVTVSS
polyreactivity (PSR sort gate): high polyreactivity

QGQLVESGGGLVQAGGSLRLSCDASGRIFRKYDMGWYRQAPGKERELVAAISGTGITYYADSVKGRFTISRDNANNTVYLQMNSLKPEDTAVYYCARGSKPRALSWADPSATSIYDYWGQGTQVTVSS
polyreactivity (PSR sort gate): low polyreactivity

QVQLVESGGGLVQAGGSLRLSCAASGSTFGRNAMGWYIQAPGKERELVAAISNRGGRTYYADSVKARFTISRDNAKNTVYFQMNSLKPEDTAVYYCAAEHRVQQGDYWGQGTQVTVSS
polyreactivity (PSR sort gate): high polyreactivity

QVQLVESGGGLVQAGGSLRLSCAASGYIFSRYAMGWYRQAPGKERELVAAITRSGTRTYYADSVKGRFTISRDNAKNTVYLQMNSLKPEDTAVYYCAKEYLYSSGFDYWGQGTQVTVSS
polyreactivity (PSR sort gate): high polyreactivity

QVHLVESGGGLVQAGGSLRLSCDASGRIFKYNAMGWYRQAPGKERELVAAISSGGSTNYADSVKGRFTISRDNAKNTVYLQMNSLKPEDTAVYDCAADGTRVSSFHYLVWLCYWGQGTQVTVSS
polyreactivity (PSR sort gate): low polyreactivity

QVQHVESGGGLVQAGGSLRLSCAASGFTIPNYAMGLYRQAPGKERELVAAITSGGGRTNYADSVKGRFTISRDNAKNTVDLQMNSLKPEDTAVYDCAKTRLRGSEFGFWGQGTQVTVSS
polyreactivity (PSR sort gate): low polyreactivity

QVQLVESGGGLVQAGGSLRLSCAASGSIFLYYAMGWYRQAPGKERELVAGIRRGGRTNYADSVKGRFTISRDNAKNTVYLQMNSLKPEDTAVYYCAKGGYWGQGTQVTVSS
polyreactivity (PSR sort gate): high polyreactivity

QVQLVESGGGLVQAGGRLRLSCAASGRTIGVYAMGWYRQAPGKERELVAAISWSGGTTYYADSVKGRFTISRDNAKNTVYLQMNSLKPEDTGVYYCAADGEYPHSEDFEYWGQGTQVTVSS
polyreactivity (PSR sort gate): low polyreactivity

QVQLVESGGCLVQARGSLRLSCAASGSTFGTYAMGWYRQPPGKERELVAAIRWSGVSTYYADSVKGRFTISRDNAKNTVYLEMNSLKPEDTAVYYCAVALWVRGTYIYEYWGQGSQVTVSS
polyreactivity (PSR sort gate): high polyreactivity

QVQLVESGGGLVQAGGSLRLSCAASGSTFSKNAMAWYRQAPGKERELVASISSSGGSTYYADSVKGRFTISRDTAKNTVYLQLNSLKPEDTAVSYCATRRGRGYYYWGQGTQVTVSS
polyreactivity (PSR sort gate): high polyreactivity

QVQLVESGGGLVQAGGSLRLSCAASGRILLYKAMGWYRQAPGKERELVAAISRSGGSTYYADSVKGRFTISRDNAKNTVYLQMNSLKPEDTAVYYCAAQHGYPRYYFWGQGTQVTVSS
polyreactivity (PSR sort gate): high polyreactivity

QVQLVESGGGLVQAGGSLRLSCAASGLTFAYYAMGWYRQAPGKERELVAAISWNGGRTYYADSVKGRFTISRDNAKNSVYLQMNSLKPEDSAVYYCAAQVTSSFYWGQGTQVTVSS
polyreactivity (PSR sort gate): high polyreactivity

QVQLVESGGGLVKAGGSLRLSCAASGFTLSRYTKGWYRQAPGKEWELVAAISWSGGSTYYADSVKGRFTISRDNAKNTVYLQMNSLKPEDSAVYYCAARYHYYGLYTSGDYYWGQGTQVTVSS
polyreactivity (PSR sort gate): high polyreactivity

QVQLVESGGGLVQAGGSLRLSCAASGSIFRTYVMGWYRQAPGKERELVAAITASGGRTYYADSVKGRFTISRDNAKNSVYLQMNSLKPEDTAVYYCAAVSRGRYADSFDHWGQGTQVTVSS
polyreactivity (PSR sort gate): high polyreactivity

QVQLVEAGGGLVQAGGSLRLSCAASGSIFAQNVRGWSRQAPGKERELVAAISYSGGTTYYADSVKGRFTISRDNAMNTVYLQMNSLKPEDTAVYDCAAEFGVYEYDYWGQGTQVTVSS
polyreactivity (PSR sort gate): low polyreactivity

QVQLVESGGGLVQAGGSLRLSCAASARTYGANAMGRYRQAPGKERELVAAISYHGTRTYYADSVKGRFTISRDNAKNTVYLQMNSLKPEDTAVYYCAAVCKPGVYQEGDEWGQGTQVTVSS
polyreactivity (PSR sort gate): high polyreactivity

QVQLVESGGGLVQAGGSLRLSCAASGSIFRPYAMGWYRQAPGKERELVAAISYRGGSTYYADSVKGRFTISRDYAKNTVYLLMNRLKPEDTAVYYCAADSREEGDYWGQGTQVTVSS
polyreactivity (PSR sort gate): low polyreactivity

QVQLVESGGGLVQAGGSLRLSCAASGRIFKSYAMGWYRQAPGKERELVAAISRGGRTNYADSVKGRFTISRDNAKNTVYLQMNSLKPEVTAVYYCAARFVVQGHSSPYDYWGQGTQVTVSS
polyreactivity (PSR sort gate): high polyreactivity

QVQLVESGGGLVQAGGSLRLSCAASGRTITRNALGWYRQAPGKERELVASINRGGSTNYADSVKGRFTISRDNAKNTDYLQMNSLNPEDTAVYYCYYHVYEQYFWVEYDYWGQGTQVTVSS
polyreactivity (PSR sort gate): high polyreactivity

QVQLVESGLGLVQAGGSLRLSCAASGRIFYLNDMGWYRQAPGIERELVADMTRSGGTTYYADSVKGRFTISRDNEKNTVYLQMNSLKPEETSVYYCAAESRFRYVYGVGYRPYLYGYWGQGTQVTVSS
polyreactivity (PSR sort gate): low polyreactivity

QVQLVESGGGLVQAGGSLRLSCAASGRTFGTNAMVWYRQAPGKERELVAAITWRGGSTSYADSVKGRFTISRDNAKNTVYLQMNSLKPEDSAVYYCAVRLRYPGNTFYYWGQGTQVTVSS
polyreactivity (PSR sort gate): high polyreactivity

QVQLVESGGGLVQAGGSLRISCAASGFTFYNYAMGWYRQAPGKRELVAAITSGGRTNYADSVKGRFTISRDNAKNTVYLQMNSRIPEDTAVYYCNAYPRWKFRSQVYDGWYGRFDYWGQGTQVTVSS
polyreactivity (PSR sort gate): high polyreactivity

QVQLVESGGGLVQAGGSLRLSCAASGLTFEKYAMGWYRQAPGKEREMVAAISQDGGSTYYADSVKGRFTISRDNAKNTVYLQMNSLKPEDTAVYYCAAEDPDSWLPWDLFYYWGQGTQVTVSS
polyreactivity (PSR sort gate): low polyreactivity

QVQLVESGGGLVQAAGSLRLSCAASGQFFAYYAMGWYRQATGKEREFVAAISWTGGSTYYADSVKGRFTISRDYAKKTVYLLMNSLKPEDTGVYYCAAVSNHLRYVASRYSYYYWGQGTQVTVSS
polyreactivity (PSR sort gate): high polyreactivity

QVQLVESGGGLVQAGGSLRLSCAPSGSTFNYNAMVWYRQAPGKERELVARISWRGGSTYYADSVKGRFTISRDNAKNTVYLQMNSLKPEATAVYYCAATRYWYGSTYDYWGQGTQVTVSS
polyreactivity (PSR sort gate): high polyreactivity
